Measured values taken from article PMC2494773 (American Journal of Physiology. Heart and Circulatory …, 2008).

Key:
[1] = target: the molecule itself; assay: non-reducing SDS-PAGE and immunoblot
SEC = target: the molecule itself; assay: SEC

B1: peroxiredoxin 2 (Prdx2), rat heart (natural protein, rat (endogenous in heart), UniProt P35704 1-198, looked up)
chain: MASGNAHIGKPAPDFTGTAVVDGAFKEIKLSDYRGKYVVLFFYPLDFTFVCPTEIIAFSDHAEDFRKLGCEVLGVSVDSQFTHLAWINTPRKEGGLGPLNIPLLADVTKSLSQNYGVLKNDEGIAYRGLFIIDAKGVLRQITVNDLPVGRSVDEALRLVQAFQYTDEHGEVCPAGWKPGSDTIKPNVDDSKEYFSKHN
stoichiometry N [1]: 2
stoichiometry N (SEC): 10

B2: peroxiredoxin 1 (Prdx1), rat heart (natural protein, rat (endogenous in heart), UniProt Q63716 1-199, looked up)
chain: MSSGNAKIGHPAPSFKATAVMPDGQFKDISLSDYKGKYVVFFFYPLDFTFVCPTEIIAFSDRAEEFKKLNCQVIGASVDSHFCHLAWINTPKKQGGLGPMNIPLVSDPKRTIAQDYGVLKADEGISFRGLFIIDDKGILRQITINDLPVGRSVDEILRLVQAFQFTDKHGEVCPAGWKPGSDTIKPDVNKSKEYFSKQK
stoichiometry N [1]: 2
